One may read the IC50 as the point on the concentration scale where inhibition reaches its midpoint.

Assay [1] addresses T1, TGFβ1 (transforming growth factor β1) (UniProt P01137 279-390). Briefly: BioVeris ECL competition assay with a labeled competitor; legend: ++ = IC50 about 10 - 50 µM.
For assay [2], the target named is T2, VEGF (vascular endothelial growth factor) (UniProt P15692-4 27-191, limits assumed, biotin label (Example 5)). The experiment in a line: BioVeris ECL competition assay with a labeled competitor; legend: +++ = IC50 about 2 - 10 µM.
For assay [3], the target named is T3, TNFα (tumor necrosis factor α) (UniProt P01375 77-233). Briefly: BioVeris ECL competition assay with a labeled competitor; legend: ++ = IC50 about 10 - 50 µM.
The target of assay [4] is T3, TNFα (tumor necrosis factor α). The experiment in a line: BioVeris ECL competition assay with a labeled competitor; legend: + = IC50 about 50 - 250 µM.
The target of assay [5] is T2, VEGF (vascular endothelial growth …). Briefly: BioVeris ECL competition assay with a labeled competitor; legend: ++ = IC50 about 10 - 50 µM.
Assay [6] has as its target T3, TNFα (tumor necrosis factor α). The experiment in a line: BioVeris ECL competition assay with a labeled competitor; negative control.
For assay [7], the target named is T4, FGF-5 (fibroblast growth factor 5) (UniProt P12034 18-268, limits assumed).
T4 sequence (looked up): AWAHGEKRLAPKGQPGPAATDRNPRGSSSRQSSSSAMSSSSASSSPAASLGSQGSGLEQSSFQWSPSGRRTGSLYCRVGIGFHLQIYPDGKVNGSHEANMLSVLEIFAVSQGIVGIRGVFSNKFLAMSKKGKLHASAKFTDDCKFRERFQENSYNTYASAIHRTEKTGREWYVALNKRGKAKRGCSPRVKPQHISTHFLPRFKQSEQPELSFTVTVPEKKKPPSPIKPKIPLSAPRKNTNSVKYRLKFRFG
Briefly: BioVeris ECL competition assay with a labeled competitor; legend: ++ = IC50 about 10 - 50 µM.

The target of assay [8] is T1, TGFβ1 (transforming growth factor β1). Briefly: BioVeris ECL competition assay with a labeled competitor; negative control.

T1 sequence (P01137 279-390 limits assumed): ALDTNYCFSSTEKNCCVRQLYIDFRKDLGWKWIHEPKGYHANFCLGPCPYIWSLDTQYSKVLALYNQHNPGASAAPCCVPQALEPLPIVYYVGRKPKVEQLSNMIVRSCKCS
T2 sequence (P15692 other isoform, or with tags, fused parts or gaps limits assumed): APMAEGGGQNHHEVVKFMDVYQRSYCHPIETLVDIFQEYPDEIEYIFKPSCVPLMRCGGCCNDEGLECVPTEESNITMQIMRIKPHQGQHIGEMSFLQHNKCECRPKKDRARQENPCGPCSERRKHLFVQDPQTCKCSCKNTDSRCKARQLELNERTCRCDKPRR
T3 sequence (P01375 77-233 limits assumed): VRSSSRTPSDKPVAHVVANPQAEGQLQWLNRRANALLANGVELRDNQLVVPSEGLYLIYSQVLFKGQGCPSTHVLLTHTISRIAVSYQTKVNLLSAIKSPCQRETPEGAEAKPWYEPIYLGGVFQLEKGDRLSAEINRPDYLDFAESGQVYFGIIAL

B1: PEN3-Q-BBIt-TGF (BBIt-A13I-L29P-F50T-V52A with the TGFβ1 binding peptide PEN3 PENINVLP) (designed binder)
chain: DPDDESSKPCCDQCICTKSNPPQCRCSDMRPNSCHSACKSCACPENINVLPCTCADITDFCYEPCKPSE
notes: also called PEN3-Q-BBIt-TGFβ1; BBIt-PEN3-Q-A13I-L29P-F50T-V52A
In turn, B1 returned an IC50 in assay [1] of 10 to 50 µM.

B2: VegKD-Q (BBIt-A13I-S25K-L29P-V52K with the VEGF-binding peptide VegKD KYDLYWW) (designed binder)
chain: DPDDESSKPCCDQCICTKSNPPQCRCKDMRPNSCHSACKSCICKYDLYWWCFCKDITDFCYEPCKPSE
In the case of B2, in assay [2], the IC50 was in the range of 2 to 10 µM.

B3: BBIt-TNF-T1 (BBIt-TNFα-T1-A13I-S25R-M27A-L29P-S31A-F50K-V52T, peptide RYWQDIP) (designed binder)
chain: DPDDESSKPCCDQCICTKSNPPQCRCRDARPNACHSACKSCACRYWQDIPCKCTDITDFCYEPCKPSE
In the case of B3, the IC50 in assay [3] was 10 to 50 µM.

B4: BBIt-TNF-T2 (BBIt-TNFα-T2-A13I-S25R-M27A-L29P-S31A-F50K-V52T, peptide APEPILA) (designed binder)
chain: DPDDESSKPCCDQCICTKSNPPQCRCRDARPNACHSACKSCACAPEPILACKCTDITDFCYEPCKPSE
As for B4, the IC50 in assay [4] is 50 to 250 µM.

B5: BBIt-AV-V5 (BBIt-VEGF-V5-A13I-S25R-M27A-L29P-S31A-F50K-V52T, peptide KPSSASS) (designed binder)
chain: DPDDESSKPCCDQCICTKSNPPQCRCRDARPNACHSACKSCACKPSSASSCKCTDITDFCYEPCKPSE
In assay [5], B5 gave an IC50 of 10 to 50 µM.

B6: BBIt-TNF-T3 (BBIt-TNFα-T3-A13I-S25R-M27A-L29P-S31A-F50K-V52T, peptide DMIMVSI) (designed binder)
chain: DPDDESSKPCCDQCICTKSNPPQCRCRDARPNACHSACKSCACDMIMVSICKCTDITDFCYEPCKPSE
notes: the listing entry must be checked
On to B6, for which the IC50 in assay [4] fell in the range of 50 to 250 µM.

B7: BBIt-AV-V4 (BBIt-VEGF-V4-A13I-S25R-M27A-L29P-S31A-F50K-V52T, peptide KHSAKAE) (designed binder)
chain: DPDDESSKPCCDQCICTKSNPPQCRCRDARPNACHSACKSCACKHSAKAECKCTDITDFCYEPCKPSE
As to B7, the IC50 in assay [2] lay within 2 to 10 µM.

B8: BBIt-AV-V3 (BBIt-VEGF-V3-A13I-S25R-M27A-L29P-S31A-F50K-V52T, peptide RPTGHSL) (designed binder)
chain: DPDDESSKPCCDQCICTKSNPPQCRCRDARPNACHSACKSCACRPTGHSLCKCTDITDFCYEPCKPSE
B8: the IC50 in assay [5] lay in the range of 10 to 50 µM.

B9: BBIt-AV-V6 (BBIt-VEGF-V6-A13I-S25R-M27A-L29P-S31A-F50K-V52T, peptide PVTKRVH) (designed binder)
chain: DPDDESSKPCCDQCICTKSNPPQCRCRDARPNACHSACKSCACPVTKRVHCKCTDITDFCYEPCKPSE
As for B9, the half-maximal inhibitory concentration (IC50) in assay [2] was 2 to 10 µM.

B10: BBIt-AV-V1 (BBIt-VEGF-V1-A13I-S25R-M27A-L29P-S31A-F50K-V52T, peptide SKHSQIT) (designed binder)
chain: DPDDESSKPCCDQCICTKSNPPQCRCRDARPNACHSACKSCACSKHSQITCKCTDITDFCYEPCKPSE
Take B10: the figures for the IC50 in assay [5] and in assay [6] were 10 to 50 µM and over 250 µM, respectively.

B11: BBIt-AV-V2 (BBIt-VEGF-V2-A13I-S25R-M27A-L29P-S31A-F50K-V52T, peptide KTNPSGS) (designed binder)
chain: DPDDESSKPCCDQCICTKSNPPQCRCRDARPNACHSACKSCACKTNPSGSCKCTDITDFCYEPCKPSE
B11 yielded an IC50 in assay [2] of 2 to 10 µM.

B12: MM007-Q-BBIt-FGF-5 (BBIt-A13I-L29P-F50T-V52A with the FGF-5 binding peptide MM007 RTQPYPL) (designed binder)
chain: DPDDESSKPCCDQCICTKSNPPQCRCSDMRPNSCHSACKSCACRTQPYPLCTCADITDFCYEPCKPSE
notes: also called BBIt-MM007-Q-A13I-L29P-F50T-V52A
In assay [7], B12 had an IC50 of 10 to 50 µM.

B13: FGFps2-Q-BBIt-FGF-5 (BBIt-A13I-L29P-F50T-V52A with the FGF-5 binding peptide FGFps2 TWIDSTP) (designed binder)
chain: DPDDESSKPCCDQCICTKSNPPQCRCSDMRPNSCHSACKSCACTWIDSTPCTCADITDFCYEPCKPSE
notes: also called BBIt-FGFps2-Q-A13I-L29P-F50T-V52A
Regarding B13, the values for the IC50 in assay [7] and in assay [8] were 10 to 50 µM and over 250 µM, respectively.

B14: MM021W-Q-BBIt-TGF (BBIt-A13I-L29P-F50T-V52A with the TGFβ1 binding peptide MM021W KHNVDWL) (designed binder)
chain: DPDDESSKPCCDQCICTKSNPPQCRCSDMRPNSCHSACKSCACKHNVDWLCTCADITDFCYEPCKPSE
notes: also called MM021W-Q-BBIt-TGFβ1; BBIt-MM021W-Q-A13I-L29P-F50T-V52A
B14 had an IC50 in assay [1] of 10 to 50 µM.

These data come from patent EP2344531B1 (Danisco US Inc., dated 2014).
